PMC11402289, “Structural basis for RNA recognition by the C-terminal RRM domain of human RBM45”

T1: RBM45 RRM3 (Homo sapiens, UniProt Q8IUH3 370-476)
T1 sequence: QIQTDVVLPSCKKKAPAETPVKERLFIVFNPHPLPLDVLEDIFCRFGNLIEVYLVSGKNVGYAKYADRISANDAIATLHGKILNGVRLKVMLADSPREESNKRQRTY


target: T1, RBM45 RRM3; experiment: X-ray crystallography; 1.65 A; 0.1 M sodium succinate pH 5.3, 8% PEG 2000; FP: 100 nM FAM-RNA/ssDNA, 10 mM Tris-HCl pH 7.5, 200 mM NaCl, 1 mM DTT, 1 mM EDTA, 5% glycerol, 25 °C, 30 min; details: protein: recombinant; tags: C-terminal His-tag

Binder | binding result
GACGCAG (ssDNA) [GACGCAG ssDNA] | binds

target: T1, RBM45 RRM3; experiment: fluorescence polarization; also printed as 33.6; FP: 100 nM FAM-RNA/ssDNA, 10 mM Tris-HCl pH 7.5, 200 mM NaCl, 1 mM DTT, 1 mM EDTA, 5% glycerol, 25 °C, 30 min; details: protein: recombinant; tags: C-terminal His-tag; label: 5'-FAM

Binder | Kd [µM]
GGACCG (ssRNA) | 32.6 ± 6.22

target: T1, RBM45 RRM3; experiment: fluorescence polarization; m6A comparison experiment; FP: 100 nM FAM-RNA/ssDNA, 10 mM Tris-HCl pH 7.5, 200 mM NaCl, 1 mM DTT, 1 mM EDTA, 5% glycerol, 25 °C, 30 min; details: protein: recombinant; tags: C-terminal His-tag; label: 5'-FAM

Binder | Kd [µM]
GGACGG (ssRNA) [GGACGG RNA] | 3.17 ± 0.3

target: T1, RBM45 RRM3; experiment: fluorescence polarization; FP: 100 nM FAM-RNA/ssDNA, 10 mM Tris-HCl pH 7.5, 200 mM NaCl, 1 mM DTT, 1 mM EDTA, 5% glycerol, 25 °C, 30 min; details: protein: recombinant; tags: C-terminal His-tag; label: 5'-FAM

Binder | Kd [µM]
CGACGG (ssRNA) | 1.99 ± 0.35
GGAGGG (ssRNA) | 61.5 ± 45.7
GUACGG (ssRNA) | 9.31 ± 1.93
GGACAG (ssRNA) | 28.1 ± 6.62
GAACGG (ssRNA) | 10.2 ± 1.97
GGACGC (ssRNA) | 1.08 ± 0.21
GGACGA (ssRNA) | 1.16 ± 0.27
GGCCGG (ssRNA) | 71 ± 16.1
GGGCGG (ssRNA) | 59.3 ± 21.2
GGAUGG (ssRNA) | 63.6 ± 12.1
UGACGG (ssRNA) | 2.13 ± 0.37
GGACGG (ssRNA) [GGACGG RNA] | 2.34 ± 0.38
GGACUG (ssRNA) | 15.3 ± 2.1
AGACGG (ssRNA) | 3.11 ± 0.48
GGACGG (ssRNA, m6A at position 3) [GG(m6A)CGG RNA] | 4.62 ± 0.55
GCACGG (ssRNA) | 8.88 ± 2.32
GGACGG (ssDNA) [GGACGG ssDNA] | 8.77 ± 0.61
GGUCGG (ssRNA) | 71.6 ± 16.9
GGACGU (ssRNA) | 1.21 ± 0.26
GGAAGG (ssRNA) | 91.6 ± 17.6
UUUUUU (ssRNA) [polyU 6-mer RNA] | 199 ± 114
